Data on five molecules can be found in patent US20260216242A1 (ALMAC DISCOVERY, published 2026).

In assay [1] the target is T1, human ALPL on CHO cells (human, UniProt P05186 18-501).
T1 construct: whole, on cells; also called CHO-ALPL
T1 sequence (looked up): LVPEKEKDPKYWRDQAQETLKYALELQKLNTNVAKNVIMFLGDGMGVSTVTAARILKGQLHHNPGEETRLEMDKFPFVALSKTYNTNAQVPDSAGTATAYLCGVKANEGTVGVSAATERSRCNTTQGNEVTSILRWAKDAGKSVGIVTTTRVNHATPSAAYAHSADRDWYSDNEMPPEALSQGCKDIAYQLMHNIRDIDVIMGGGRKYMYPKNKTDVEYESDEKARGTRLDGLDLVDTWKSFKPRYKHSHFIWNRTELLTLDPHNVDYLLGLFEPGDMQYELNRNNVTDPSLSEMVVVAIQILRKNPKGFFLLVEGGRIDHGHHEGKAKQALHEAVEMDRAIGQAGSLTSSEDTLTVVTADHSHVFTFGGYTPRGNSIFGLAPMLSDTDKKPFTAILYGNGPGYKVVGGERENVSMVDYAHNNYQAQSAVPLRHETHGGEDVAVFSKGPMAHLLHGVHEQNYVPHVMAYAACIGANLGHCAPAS
Nature of the assay: flow cytometry, CHO cells stably expressing human ALPL; PDC detected with FITC anti-human Ab. The procedure:
(§1) Biparatopic VHH-hFc drug conjugates were assessed for human ALPP, ALPPL2, ALPI and ALPL cell-surface binding by flow cytometry. Binders were screened on CHO cells stably expressing human ALPP, ALPPL2, ALPI or ALPL.
(§2) Cell surface binding of test agents to hALPP isoforms was characterized in four CHO-ALPP isoform transfectant cell lines (CHO-ALPP, CHO-ALPPL2, CHO-ALPI and CHO-ALPL) and the resulting KDapp values determined. Adherent cells were detached from tissue culture flasks by incubating with 0.1% EDTA/PBS solution at 37° C. for […] or until cells detached easily. Cells were re-suspended in ice-cold PBS/2% FCS in 15 ml tubes and centrifuged at 1700 rpm for 5 mins at 4° C. Supernatant was removed and the cell pellet re-suspended in PBS/2% FCS. […] Cells were incubated with 100 μl of test agents at a range of concentrations, plus controls for 1 hr on ice. The sample plate was centrifuged at 1700 rpm for 5 mins at 4° C. The supernatant was removed, and a wash performed by re-suspending the cell pellets in 0.25 mL of ice-cold PBS/2% FCS using a multichannel pipette. Samples were again centrifuged at 1700 rpm for 5 min at 4° C. Supernatant was removed and two further washes performed as described. After the final wash and centrifugation step, excess liquid was removed by blotting the plate on tissue paper. Binding of VHH-hFc agents was determined by adding 100 μl of Fitc-anti-human Ab (ThermoFisher) and incubating for 30 mins on ice in the dark. Wash steps were performed as described previously. All cell pellets were finally re-suspended in 0.28 ml of ice-cold PBS/2% FCS and left on ice in the dark prior to analysis on a Merck-Millipore Guava EasyCyte HT or Thermo Fisher Attune N×T flow cytometer.
(A flow cytometer gives signals particle by particle.)

Assay [2] concerns the target T2, human ALPI on CHO cells (human, UniProt P09923 20-503).
T2 construct: whole, on cells; also called CHO-ALPI
T2 sequence (looked up): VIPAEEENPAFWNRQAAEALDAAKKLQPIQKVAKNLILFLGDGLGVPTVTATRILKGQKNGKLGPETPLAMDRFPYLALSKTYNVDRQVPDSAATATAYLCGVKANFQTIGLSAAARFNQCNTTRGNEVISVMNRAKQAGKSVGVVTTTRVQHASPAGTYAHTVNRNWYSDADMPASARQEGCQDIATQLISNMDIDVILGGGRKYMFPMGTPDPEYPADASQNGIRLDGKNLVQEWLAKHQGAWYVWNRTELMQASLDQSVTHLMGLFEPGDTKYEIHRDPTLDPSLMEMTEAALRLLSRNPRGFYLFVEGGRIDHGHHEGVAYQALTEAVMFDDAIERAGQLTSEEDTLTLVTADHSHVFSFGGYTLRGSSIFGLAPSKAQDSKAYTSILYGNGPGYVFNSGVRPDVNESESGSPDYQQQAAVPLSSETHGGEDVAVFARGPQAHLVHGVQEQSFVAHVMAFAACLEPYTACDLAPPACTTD
Description: flow cytometry, CHO cells stably expressing human ALPI; PDC detected with FITC anti-human Ab. The procedure: as §1, §2

B1: D10-E06-hFc-vcPAB-MMAE [G4S]1 (Fc fusion, DAR 4)
chain 1: QVQLVESGGGLVQPGGSLRLSCAASGSIFSVNTMGWYRQAPGKQRDLVAVATSGGTIHYADSVKGRFTISRDNAKNTVYLQMNSLKPEDTAVYYCNLVVPYGMIAGDHDYWGQGTKVTVSSGGGGSEPKSSDKTHTCPPCPAPELLGGPCVFLFPPKPKDTLMISRTPEVTCVVVDVSHEDPEVKFNWYVDGVEVHNAKTKPREEQYNSTYRVVSVLTVLHQDWLNGKEYKCKVSNKALPAPIEKTISKAKGQPREPQVYTLPPSRDELTKNQVSLYCLVKGFYPSDIAVEWESNGQPENNYKTTPPVLDSDGSFFLYSKLTVDKSRWQQGNVFSCSVMHEALHNHYTQKSLCLSPGK
chain 2: QVHLVESGGGLVQAGGSLRLSCAASRRSFSEYAMGWFRQAPGKEREFVAAIGWSGVIEYADSVKGRFTISRDNAKDTVYLQMNSLKPEDTAVYYCAAGLGIRVVSQTPAYWGQGTQVTVSSGGGGSEPKSSDKTHTCPPCPAPELLGGPCVFLFPPKPKDTLMISRTPEVTCVVVDVSHEDPEVKFNWYVDGVEVHNAKTKPREEQYNSTYRVVSVLTVLHQDWLNGKEYKCKVSNKALPAPIEKTISKAKGQPREPQVYTLPPSRDELTKNQVSLTCLVKGFYPSDIAVEWESNGQPENNYKTTPPVLDSDGSFFLTSKLTVDKSRWQQGNVFSCSVMHEALHNHYTQKSLCLSPGK
modifications: MC-vc-PAB-MMAE on Cys 239 and Cys 442 (EU numbering)
notes: Biparatopic drug conjugate, DAR 4
As for B1, the binding result in assay [1] and in assay [2] was “no binding (tested: 350 nM)” throughout.

B2: D10-E10-hFc-vcPAB-MMAE [G4S]1 (Fc fusion, DAR 4)
chain 1: QVQLVESGGGLVQPGGSLRLSCAASGSIFSVNTMGWYRQAPGKQRDLVAVATSGGTIHYADSVKGRFTISRDNAKNTVYLQMNSLKPEDTAVYYCNLVVPYGMIAGDHDYWGQGTKVTVSSGGGGSEPKSSDKTHTCPPCPAPELLGGPCVFLFPPKPKDTLMISRTPEVTCVVVDVSHEDPEVKFNWYVDGVEVHNAKTKPREEQYNSTYRVVSVLTVLHQDWLNGKEYKCKVSNKALPAPIEKTISKAKGQPREPQVYTLPPSRDELTKNQVSLYCLVKGFYPSDIAVEWESNGQPENNYKTTPPVLDSDGSFFLYSKLTVDKSRWQQGNVFSCSVMHEALHNHYTQKSLCLSPGK
chain 2: QVQLVESGGGLVQAGGSLRLSCAVSGRALSDYNIGWFRQAPGKEREFVARKTWDGSSTRYDDSVKGRFTVSIEDAKNTAYLQMSSLKTEDTAVYYCAAGRYSRARGWEYDYWGQGTQVTVSSGGGGSEPKSSDKTHTCPPCPAPELLGGPCVFLFPPKPKDTLMISRTPEVTCVVVDVSHEDPEVKFNWYVDGVEVHNAKTKPREEQYNSTYRVVSVLTVLHQDWLNGKEYKCKVSNKALPAPIEKTISKAKGQPREPQVYTLPPSRDELTKNQVSLTCLVKGFYPSDIAVEWESNGQPENNYKTTPPVLDSDGSFFLTSKLTVDKSRWQQGNVFSCSVMHEALHNHYTQKSLCLSPGK
modifications: MC-vc-PAB-MMAE on Cys 239 and Cys 442 (EU numbering)
notes: as for B1
For B2, the binding result in assay [1] and in assay [2] was “no binding (tested: 350 nM)” throughout.

B3: D10-E06 hFc-vcPAB-MMAE [G4S]3 (Fc fusion, DAR 4)
chain 1: QVQLVESGGGLVQPGGSLRLSCAASGSIFSVNTMGWYRQAPGKQRDLVAVATSGGTIHYADSVKGRFTISRDNAKNTVYLQMNSLKPEDTAVYYCNLVVPYGMIAGDHDYWGQGTKVTVSSGGGGSGGGGSGGGGSEPKSSDKTHTCPPCPAPELLGGPCVFLFPPKPKDTLMISRTPEVTCVVVDVSHEDPEVKFNWYVDGVEVHNAKTKPREEQYNSTYRVVSVLTVLHQDWLNGKEYKCKVSNKALPAPIEKTISKAKGQPREPQVYTLPPSRDELTKNQVSLYCLVKGFYPSDIAVEWESNGQPENNYKTTPPVLDSDGSFFLYSKLTVDKSRWQQGNVFSCSVMHEALHNHYTQKSLCLSPGK
chain 2: QVHLVESGGGLVQAGGSLRLSCAASRRSFSEYAMGWFRQAPGKEREFVAAIGWSGVIEYADSVKGRFTISRDNAKDTVYLQMNSLKPEDTAVYYCAAGLGIRVVSQTPAYWGQGTQVTVSSGGGGSGGGGSGGGGSEPKSSDKTHTCPPCPAPELLGGPCVFLFPPKPKDTLMISRTPEVTCVVVDVSHEDPEVKFNWYVDGVEVHNAKTKPREEQYNSTYRVVSVLTVLHQDWLNGKEYKCKVSNKALPAPIEKTISKAKGQPREPQVYTLPPSRDELTKNQVSLTCLVKGFYPSDIAVEWESNGQPENNYKTTPPVLDSDGSFFLTSKLTVDKSRWQQGNVFSCSVMHEALHNHYTQKSLCLSPGK
modifications: MC-vc-PAB-MMAE on Cys 239 and Cys 442 (EU numbering)
notes: Biparatopic drug conjugate, DAR 4; also called #634
For the molecule B3, the binding result in assay [1] and in assay [2] was “no binding (tested: 350 nM)” throughout.

B4: D10-E10 hFc-vcPAB-MMAE [G4S]3 (Fc fusion, DAR 4)
chain 1: QVQLVESGGGLVQPGGSLRLSCAASGSIFSVNTMGWYRQAPGKQRDLVAVATSGGTIHYADSVKGRFTISRDNAKNTVYLQMNSLKPEDTAVYYCNLVVPYGMIAGDHDYWGQGTKVTVSSGGGGSGGGGSGGGGSEPKSSDKTHTCPPCPAPELLGGPCVFLFPPKPKDTLMISRTPEVTCVVVDVSHEDPEVKFNWYVDGVEVHNAKTKPREEQYNSTYRVVSVLTVLHQDWLNGKEYKCKVSNKALPAPIEKTISKAKGQPREPQVYTLPPSRDELTKNQVSLYCLVKGFYPSDIAVEWESNGQPENNYKTTPPVLDSDGSFFLYSKLTVDKSRWQQGNVFSCSVMHEALHNHYTQKSLCLSPGK
chain 2: QVQLVESGGGLVQAGGSLRLSCAVSGRALSDYNIGWFRQAPGKEREFVARKTWDGSSTRYDDSVKGRFTVSIEDAKNTAYLQMSSLKTEDTAVYYCAAGRYSRARGWEYDYWGQGTQVTVSSGGGGSGGGGSGGGGSEPKSSDKTHTCPPCPAPELLGGPCVFLFPPKPKDTLMISRTPEVTCVVVDVSHEDPEVKFNWYVDGVEVHNAKTKPREEQYNSTYRVVSVLTVLHQDWLNGKEYKCKVSNKALPAPIEKTISKAKGQPREPQVYTLPPSRDELTKNQVSLTCLVKGFYPSDIAVEWESNGQPENNYKTTPPVLDSDGSFFLTSKLTVDKSRWQQGNVFSCSVMHEALHNHYTQKSLCLSPGK
modifications: MC-vc-PAB-MMAE on Cys 239 and Cys 442 (EU numbering)
notes: as for B1
With B4, the binding result in assay [1] and in assay [2] was “no binding (tested: 350 nM)” in each case.

B5: D10-F05 hFc-vcPAB-MMAE [G4S]3 (Fc fusion, DAR 4)
chain 1: QVQLVESGGGLVQPGGSLRLSCAASGSIFSVNTMGWYRQAPGKQRDLVAVATSGGTIHYADSVKGRFTISRDNAKNTVYLQMNSLKPEDTAVYYCNLVVPYGMIAGDHDYWGQGTKVTVSSGGGGSGGGGSGGGGSEPKSSDKTHTCPPCPAPELLGGPCVFLFPPKPKDTLMISRTPEVTCVVVDVSHEDPEVKFNWYVDGVEVHNAKTKPREEQYNSTYRVVSVLTVLHQDWLNGKEYKCKVSNKALPAPIEKTISKAKGQPREPQVYTLPPSRDELTKNQVSLYCLVKGFYPSDIAVEWESNGQPENNYKTTPPVLDSDGSFFLYSKLTVDKSRWQQGNVFSCSVMHEALHNHYTQKSLCLSPGK
chain 2: QVQLVESGGGLVQAGGSLRLSCAASGRAFGDYNIGWFRQAPGKEREFVARRTWDGSSTRYDDSVKGRFTVSIDNAKNTAYLQMNSLKTEDTAVYYCAAGRYSRVRGWEYDYWGQGTQVTVSSGGGGSGGGGSGGGGSEPKSSDKTHTCPPCPAPELLGGPCVFLFPPKPKDTLMISRTPEVTCVVVDVSHEDPEVKFNWYVDGVEVHNAKTKPREEQYNSTYRVVSVLTVLHQDWLNGKEYKCKVSNKALPAPIEKTISKAKGQPREPQVYTLPPSRDELTKNQVSLTCLVKGFYPSDIAVEWESNGQPENNYKTTPPVLDSDGSFFLTSKLTVDKSRWQQGNVFSCSVMHEALHNHYTQKSLCLSPGK
modifications: MC-vc-PAB-MMAE on Cys 239 and Cys 442 (EU numbering)
notes: Biparatopic drug conjugate, DAR 4; also called #637
Regarding B5, the binding result in assay [1] and in assay [2] was “no binding (tested: 350 nM)” in each case.
